Laboratory results as given in patent US11845989B2, “Treatment of ophthalmic conditions with angiopoietin-like 7 (ANGPTL7) inhibitors” (Regeneron Pharmaceuticals, Inc., priority 2019, dated 2023).

Tests used:
[1] = tested on: mouse eyes; experiment: Intravitreal injection of ANGPTL7 protein in mice, IOP measured over time; type: in vivo
Procedure: (§1) Isoflurane anesthetized IOPs were measured as previously described. For IOP measurements, mice were anesthetized before IOP was measured in both eyes using a TonoLab rebound tonometer (Colonial Medical Supply, Franconia, N H). IOP measurements for both eyes were completed in 3-5 minutes. IOP in each eye was measured before start of Angptl7 injections and every day afterwards for six days.
A 33-gauge needle with a glass microsyringe (5-4 volume; Hamilton Company) was used. The eye was proptosed, and the needle was inserted through the equatorial sclera and inserted into the vitreous chamber at an angle of approximately 45 degrees, taking care to avoid touching the posterior part of the lens or the retina. ANGPTL7 protein (catalog #4960-AN-025; R&D Systems, Minneapolis, MN) or PBS (1 μL) was injected into the vitreous over the course of 1 minute. The needle was then left in place for a further 45 seconds (to facilitate mixing), before being rapidly withdrawn. Only one injection was administered at day 0.

[2] = tested on: mouse eyes; experiment: Intracameral injection of ANGPTL7 protein in mice, IOP measured over time; type: in vivo
Procedure: as §1
A 33-gauge needle with a glass microsyringe (5-4 volume) (Hamilton Company) was used. Before and during injection, mice were anesthetized with isoflurane (2.5%) containing oxygen (0.8 L/min). For topical anesthesia, both eyes received one to two drops of 0.5% proparacaine HCl (Akorn, Inc.). Each eye was proptosed and the needle was inserted through the cornea just above the limbal region and into the anterior chamber at an angle parallel to the cornea, taking care to avoid touching the iris, anterior lens capsule epithelium, or corneal endothelium. Up to 1 μL of ANGPTL7 protein (catalog #4960-AN-025; R&D Systems, Minneapolis, MN) or PBS was injected slowly (over a 30-second period). The needle was then withdrawn. The procedure was performed on both eyes of each animal. Only one injection was administered at day 0.

B1: ANGPTL7 protein: ANGPTL7 protein (catalog #4960-AN-025; R&D Systems), murine Angptl7 protein injected into mouse eyes (protein, UniProt Q8R1Q3 22-337, looked up)
Angiopoietin-related protein 7: QKPHKRKTQLKAAGCCEEMRELKAQVANLSSLLGELSRKQESDWVSVVMQVMELESSSKHMESRLSTAESKYSEMNNQIDIMQLQAAQTVTQTSADAIYDCSSLYQKNYRISGVYKLPPDEFLGSPELEVFCDMETSGGGWTIIQRRKSGLVSFYQDWRQYKQGFGSIRGDFWLGNEHIHRLTRQPSRLRVELEDWEGNARYAEYSYFALGNELNSYRLFLGNYSGNVGKDALLYHNNTVFSTKDKDNDNCLDKCAQLRKGGYWYNCCTDSNLNGVYYRLGEHRKHMDGISWYGWHGANYSLKRVEMKIRPEAFKP
[1]; mice, single intravitreal injection at day 0, after an initial drop, starting on day 4 until end of experiment on day 7
  elevation of IOP: 4-5 mmHg
[1]; mice, single intravitreal injection at day 0, starting on day 4 until day 7
  elevation of IOP compared to baseline: 22-25%
[1]; mouse eyes, intravitreal route, after an initial drop (FIG. 6A)
  IOP in Angptl7-treated eyes compared to control eyes: elevated
[2]; mice, single intracameral injection at day 0, after an initial drop, starting on day 3 until end of experiment on day 7
  elevation of IOP: 2-5 mmHg
[2]; mouse eyes, intracameral route, after an initial drop (FIG. 6B)
  IOP in Angptl7-treated eyes compared to control eyes: elevated
